Measurements reported in patent publication US20050277167A1, “Prolyl 3-hydroxylases” (priority 2004, published 2005).

What was measured:
[1] = molecular target: T1, [2,3-3H]-L-proline-labeled procollagen substrate (Gallus gallus, UniProt Q6JHU8); test: Prolyl 3-hydroxylase activity assay, release of tritiated water (THO) from labeled procollagen substrate; type: biochemical, chicken; conditions: same Km expressed per ml reaction volume
T1 construct: Purified P3H1 from 15-day-old chick embryos was tested for its enzymatic activity using a labeled procollagen substrate; from tissue; host or cells: 15 day-old chick embryos: rER-enriched extract, gelatin-Sepharose, then 1C10 antibody column eluted at pH 2.5
T1 sequence (Q6JHU8 15-725): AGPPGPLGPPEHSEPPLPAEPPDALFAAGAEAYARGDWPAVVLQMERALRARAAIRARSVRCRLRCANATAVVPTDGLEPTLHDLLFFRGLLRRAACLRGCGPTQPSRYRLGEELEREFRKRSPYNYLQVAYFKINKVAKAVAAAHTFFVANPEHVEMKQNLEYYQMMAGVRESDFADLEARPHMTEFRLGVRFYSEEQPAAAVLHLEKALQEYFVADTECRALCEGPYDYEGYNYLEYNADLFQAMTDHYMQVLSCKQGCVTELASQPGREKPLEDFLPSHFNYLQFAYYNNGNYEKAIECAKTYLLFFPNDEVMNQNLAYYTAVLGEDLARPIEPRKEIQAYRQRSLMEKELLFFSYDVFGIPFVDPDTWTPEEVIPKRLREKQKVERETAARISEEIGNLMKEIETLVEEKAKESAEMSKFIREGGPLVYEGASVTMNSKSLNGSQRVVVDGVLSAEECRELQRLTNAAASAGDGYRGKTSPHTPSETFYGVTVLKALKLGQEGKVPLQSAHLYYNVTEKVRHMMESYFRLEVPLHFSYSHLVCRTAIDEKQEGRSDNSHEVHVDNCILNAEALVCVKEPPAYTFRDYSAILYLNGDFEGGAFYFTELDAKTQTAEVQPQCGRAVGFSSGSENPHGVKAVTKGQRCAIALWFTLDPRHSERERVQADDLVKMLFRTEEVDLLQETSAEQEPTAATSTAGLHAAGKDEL
Experimental: Prolyl 3-hydroxylase activity was measured based on the amount of tritiated water (THO) formed from a labeled procollagen substrate (Kivirikko et al. Matrix Biol, 16, 357-368 (1998); Risteli et al. Anal Biochem, 84, 423-431 (1978)) with the following modifications. [2,3-^3H]-L-Proline, 42 Ci/mmol, was purchased from Sigma.[2,3-^3H]-proline-labeled nonhydroxylated procollagen was prepared from the isolated cells of the leg tendons from 12 dozen 15 day-old chicken embryos (Berg et al., Biochemistry, 12, 3395-3401 (1973); Dehm et al. Biochim Biophys Acta, 264, 375-382 (1972); Kivirikko et al., Methods Enzymol, 82 Pt A, 245-304 (1982)). […]
The prolyl 3-hydroxylase reactions were performed as described previously (Kivirikko et al., 1982; Risteli et al., 1978; Tryggvason et al., 1976) but with the following modifications: the enzyme reaction was carried out for 60 minutes at 24° C. in a final volume of 2.0 mls containing 1×10^6 dpm [2,3-^3H]-L-proline-labeled substrate, 0.08 mM FeSO^4, 2 mM ascorbic acid, 0.5 mM 2-oxoglutarate, 0.2 mg/ml catalase, 2 mg/ml bovine serum albumin, 0.1 mM dithiothreitol, and 0.05 M Tris-HCl, pH 7.8. […] A 1.8 ml aliquot of the tritiated water was mixed with 10 mls Ecolume liquid scintillation cocktail (ICN) and counted in a Beckman LS5000TD liquid scintillation counter. […]

[2] = molecular target: T2, (Pro-Pro-Gly)10 substrate (Gallus gallus, UniProt Q6JHU8); test: Prolyl 4-hydroxylase activity assay, hydroxylation-coupled decarboxylation of 2-oxo[1-14C]glutarate; type: biochemical; conditions: purified P3H1 enzyme
T2 construct: Purified P3H1 from 15-day-old chick embryos was tested for its enzymatic activity using a labeled procollagen substrate; from tissue; host or cells: 15 day-old chick embryos: rER-enriched extract, gelatin-Sepharose, then 1C10 antibody column eluted at pH 2.5
T2 sequence (Q6JHU8 15-725): T1 sequence (Q6JHU8 15-725)
Experimental: The prolyl 4-hydroxylase activity was assayed by a method based on the hydroxylation-coupled decarboxylation of 2-oxo[1-^14C]glutarate (Kivirikko et al., 1982). The reaction was performed in a final volume of 1.0 ml, which contained 0.1 mg (Pro-Pro-Gly)10.9H^2O as substrate, 2 mM ascorbic acid, 0.05 mM FeSO^4, 0.1 mM dithiothreitol, 2 mg/ml bovine serum albumin, 0.1 mg/ml catalase, 50 mM Tris-HCl, pH 7.8, and 0.1 mM 2-oxo[1-^14C]glutarate (100,000 dpm). The reaction was stopped by the addition of 1 ml of 1 M KH2PO4, pH 5.0.

B1: P3H1: prolyl 3-hydroxylase 1 purified from 15-day-old chick embryos, chicken homologue of leprecan (protein)
chain: T1 sequence (Q6JHU8 15-725)
Question: For B1, which Km [1] is on record?
Answer: Its Km is 89.5 μl of substrate per ml.

Question: What about the “prolyl 4-hydroxylase activity” value [2] of the same molecule?
Answer: Its value is “did not have any prolyl 4-hydroxylase activity”.
